{"source": "patent US20260209383A1", "about": "“SITE-[…] […] ANTIBODY DRUG CONJUGATES” (SEAGEN INC., priority 2022, published 2026)", "molecules": {"B1": {"name": "h2A2-mc-vc-MMAE(4): conventional anti-ITGB6 ADC, h2A2 without engineered cysteines conjugated with mc-vc-MMAE; positive control (conjugate)", "VH": "QFQLVQSGAEVKKPGASVKVSCKASGYSFTDYNVNWVRQAPGQGLEWIGVINPKYGTTRYNQKFKGRATLTVDKSTSTAYMELSSLRSEDTAVYYCTRGLNAWDYWGQGTLVTVSS", "VL": "DIQMTQSPSSLSASVGDRVTITCGASENIYGALNWYQQKPGKAPKLLIYGATNLEDGVPSRFSGSGSGRDYTFTISSLQPEDIATYYCQNVLTTPYTFGQGTKLEIK"}}, "key": {"[1]": {"tested_on": "HPAFII cells", "assay": "In vitro cytotoxicity assay (CellTiter-Glo), HPAFII", "assay_type": "cell-based", "procedure": "(§1) In vitro cytotoxicity assay: The cytotoxic effect of an EC4-based ADC was measured by a cell proliferation assay employing the protocol in the Promega Corp. Technical Bulletin TB288; and Mendoza et a1., 2002, Cancer Res. 62:5485-5488), the methods of which are specifically incorporated by reference herein. Briefly, an aliquot of 40 μl of cell culture containing about 400 cells in medium was deposited in each well of a 384-well, opaque-walled plate. A 10 μL aliquot of free cytotoxic agent or ADC was added to the experimental wells and incubated for 96 hr and then incubated at room temperature for approximately 30 mins whereupon a volume of CellTiter-Glo™ reagent equal to the volume of cell culture medium present in each well was added. The contents were mixed for 2 mins on an orbital shaker to induce cell lysis and the plate was incubated at room temperature for 10 mins to stabilize the luminescence signal for recordation.\nAnti-ITGB6 ADCs were tested for potency. The antibodies were engineered with the cysteine pairs disclosed above in the previous Examples. The efficacy of anti-ITGB6 EC4 ADCs were also tested against conventional anti-ITGB6 ADCs. The cells were treated with conventional or EC4 ADCs, then the remaining cells were counted to assess the cytotoxic effects of each EC4 variant compared to conventional ADCs. […]"}, "[2]": {"tested_on": "BxPC-3 cells", "assay": "In vitro cytotoxicity assay (CellTiter-Glo), BxPC-3", "assay_type": "cell-based", "procedure": "as §1\nAnti-ITGB6 ADCs were tested for potency. The antibodies were engineered with the cysteine pairs disclosed above in the previous Examples. The efficacy of anti-ITGB6 EC4 ADCs were also tested against conventional anti-ITGB6 ADCs. The cells were treated with conventional or EC4 ADCs, then the remaining cells were counted to assess the cytotoxic effects of each EC4 variant compared to conventional ADCs. […] Cytotoxicity in BxPC-3 cells increased when the cells were treated with greater than 50 ng/mL of the positive control, conventional anti-ITGB6 ADCs (h2A2-mc-vc-MMAE). […] Both h2A2-mc-vc-MMAE and h2A2 S400C S114C-mc-vc-MMAE were cytotoxic to HPAFII cells when greater than 10 ng/mL ADC were used on the cells."}}, "data": [{"molecule": "B1", "values": [{"measurement": "% viability at top concentration", "setting": "[1]", "result": 35, "unit": "%"}, {"measurement": "x50", "setting": "[1]; 96 hr", "result": 199, "unit": "ng/mL"}, {"measurement": "% viability at top concentration", "setting": "[2]; BXPC3", "result": 36, "unit": "%"}, {"measurement": "x50", "setting": "[2]; BXPC3, 96 hr", "result": 251, "unit": "ng/mL"}, {"measurement": "ADC concentration above which cytotoxicity increased", "setting": "[2]; BxPC-3 cells", "result": "greater than 50 ng/mL"}]}]}
